One experiment concerns the target 鼠疫杆菌V重组蛋白 (Yersinia pestis, UniProt P0C7U7 1-326). In words: ELISA, antigen coated at 2 μg/mL, mhS1 at 20 μg/mL, goat anti-human IgG-HRP. On the technique in general: An ELISA detects its analyte on a solid surface through an enzyme-linked reagent.
The next experiment has as its target 鼠疫菌F1重组蛋白 (Yersinia pestis, UniProt P26948 22-170).

鼠疫杆菌V重组蛋白, sequence (P0C7U7 whole entry): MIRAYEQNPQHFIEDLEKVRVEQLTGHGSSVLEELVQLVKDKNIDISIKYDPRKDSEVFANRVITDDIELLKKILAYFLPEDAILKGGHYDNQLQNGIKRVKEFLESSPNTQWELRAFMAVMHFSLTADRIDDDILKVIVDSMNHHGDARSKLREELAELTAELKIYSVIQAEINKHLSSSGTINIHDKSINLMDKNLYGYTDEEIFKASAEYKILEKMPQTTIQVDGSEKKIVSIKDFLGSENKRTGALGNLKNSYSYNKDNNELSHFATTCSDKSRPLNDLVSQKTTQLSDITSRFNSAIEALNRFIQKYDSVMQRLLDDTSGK
鼠疫菌F1重组蛋白, sequence (P26948 22-170 limits assumed): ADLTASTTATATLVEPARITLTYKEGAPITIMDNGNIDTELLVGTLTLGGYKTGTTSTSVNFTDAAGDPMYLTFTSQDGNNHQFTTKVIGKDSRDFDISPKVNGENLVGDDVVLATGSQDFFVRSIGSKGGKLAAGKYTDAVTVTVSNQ

B1: 人鼠嵌合全抗体mhS1 (antibody, V domains shown)
VH: QVQLKESGAELVKPGASVKLSCTASGFNIKDTYIHWMKQRPEQGLEWIGRIDPANGHSIYDPKFQGKATITADASSNAAYLQLSSLTSEDTAVYYCARSYGYEKRYAMDYWGQGTSVTVSS
VL: DIVMTQTTSSLSASLGDRVTISCSASQGISNYLNWYQQKPDGTVKVLIYYTSTLHSGVPSRFSGSGSGTDYSLTISNLEPEDIATYYCQQYSKLPWTFGGGTKLEMKR
The EC50 is the concentration that produces a half-maximal response. With B1, the binding result in the experiment with 鼠疫杆菌V重组蛋白 was “no binding (tested: 20μg/mL)”. In the experiment with 鼠疫菌F1重组蛋白, this molecule had a concentration giving a half-maximal response (EC50) of 0.0114 nM.
